Results published in patent publication US20250027945A1 (University of California, published 2025).

Key:
[1] = target: T1, human RYK on the surface of human tumor cell lines (human, UniProt P34925 46-607); experiment: flow cytometry, K562 cells (CML), 5 ug/ml 2-D11-Alexa647
T1 construct: whole, on cells; Endogenous expression
Method: (§1) Table 1 provides the flow cytometry data on various cancer cell lines stained with fluorochrome-conjugated 2-D11, as depicted in FIG. 8. The name of each cell line is listed in the first column and the tissue of origin is listed in the second column. Binding of the 2-D11 mAb to human RYK was assessed by flow cytometric staining and analysis by staining on ice for 20 minutes with 5 μg/ml of 2-D11 anti-human RYK-Alexa647 conjugated mAb or equal amounts of isotype matched control mAb, washed, and analyzed. The median fluorescence intensity (MFI) of 2-D11 stained cells is listed in the middle column and the MFI of isotype control stained cells are listed in the in the adjacent column. Cell lines were scored as “++”, “+”, or neg (unmarked with “+”) lines based on the ratio of median fluorescence intensity (MFI) of stained cells relative to the MFI of isotype control stained cells (MFIR).
(§2) The name of each cell line is listed in the first column and the tissue of origin is listed in the second column. Binding of the 2-D11 mAb to human RYK was assessed by flow cytometric staining and analysis by staining on ice for 20 minutes with 5 μg/ml of 2-D11 anti-human RYK-Alexa647 conjugated mAb or equal amounts of isotype matched control mAb, washed and analyzed. […]

[2] = target: T1, human RYK on the surface of human tumor …; experiment: flow cytometry, A549 cells (lung), 5 ug/ml 2-D11-Alexa647
Method: as §1, §2

[3] = target: T1, human RYK on the surface of human tumor …; experiment: flow cytometry, HT144 cells (skin), 5 ug/ml 2-D11-Alexa647
Method: as §1, §2

[4] = target: T1, human RYK on the surface of human tumor …; experiment: flow cytometry, HT29 cells (colon), 5 ug/ml 2-D11-Alexa647
Method: as §1, §2

[5] = target: T2, recombinant human RYK protein used in KinExA (human, UniProt P34925 46-227, limits assumed); experiment: KinExA 3200, soluble RYK competitor against RYK-coated particles
T2 construct: Legend prints 'RYK2'; also called recombinant human RYK2 protein
Method: Analysis was performed using a KinExA 3200 instrument. FIG. 7A: The proportion of anti-human RYK mAb bound to particles coated with RYK protein (y-axis) in the presence of increasing molar (M) concentration of soluble RYK competitor (x-axis) is shown for 2-D11 mAb (upper left panel) and 7-H10 mAb (lower left panel).

[6] = target: T1, human RYK on the surface of human tumor …; experiment: flow cytometry, T47-D cells (breast), 5 ug/ml 2-D11-Alexa647
Method: as §1, §2

[7] = target: T1, human RYK on the surface of human tumor …; experiment: flow cytometry, HS-578T cells (breast), 5 ug/ml 2-D11-Alexa647
Method: as §1, §2

[8] = target: T1, human RYK on the surface of human tumor …; experiment: flow cytometry, OVCAR4 cells (ovarian), 5 ug/ml 2-D11-Alexa647
Method: as §1, §2

[9] = target: T1, human RYK on the surface of human tumor …; experiment: flow cytometry, COLO 829 cells (melanoma), 5 ug/ml 2-D11-Alexa647
Method: as §1, §2

[10] = target: T1, human RYK on the surface of human tumor …; experiment: flow cytometry, REH cells (ALL), 5 ug/ml 2-D11-Alexa647; line unmarked (no staining)
Method: as §1, §2

[11] = target: T1, human RYK on the surface of human tumor …; experiment: flow cytometry, MEC1 cells (CLL), 5 ug/ml 2-D11-Alexa647; line unmarked (no staining)
Method: as §1, §2

[12] = target: T1, human RYK on the surface of human tumor …; experiment: flow cytometry, NALM6 cells (ALL), 5 ug/ml 2-D11-Alexa647; line unmarked (no staining)
Method: as §1, §2

[13] = target: T1, human RYK on the surface of human tumor …; experiment: flow cytometry, JEKO cells (mantle), 5 ug/ml 2-D11-Alexa647; line unmarked (no staining)
Method: as §1, §2

[14] = target: T1, human RYK on the surface of human tumor …; experiment: flow cytometry, SW620 cells (colon), 5 ug/ml 2-D11-Alexa647; line unmarked (no staining)
Method: as §1, §2

[15] = target: T1, human RYK on the surface of human tumor …; experiment: flow cytometry, SK-MES-1 cells (lung), 5 ug/ml 2-D11-Alexa647; line unmarked (no staining)
Method: as §1, §2

[16] = target: T1, human RYK on the surface of human tumor …; experiment: flow cytometry, RAJI cells (Burkitt NHL), 5 ug/ml 2-D11-Alexa647; line unmarked (no staining)
Method: as §1, §2

[17] = target: T1, human RYK on the surface of human tumor …; experiment: flow cytometry, JURKAT cells (T-cell ALL), 5 ug/ml 2-D11-Alexa647; line unmarked (no staining)
Method: as §1, §2

[18] = target: T1, human RYK on the surface of human tumor …; experiment: flow cytometry, MDA-MB-231 cells (breast), 5 ug/ml 2-D11-Alexa647; line unmarked (no staining)
Method: as §1, §2

[19] = target: T1, human RYK on the surface of human tumor …; experiment: flow cytometry, U937 cells (monocyte cancer), 5 ug/ml 2-D11-Alexa647; line unmarked (no staining)
Method: as §1, §2

T1 sequence (P34925 46-607 limits assumed, form in doubt): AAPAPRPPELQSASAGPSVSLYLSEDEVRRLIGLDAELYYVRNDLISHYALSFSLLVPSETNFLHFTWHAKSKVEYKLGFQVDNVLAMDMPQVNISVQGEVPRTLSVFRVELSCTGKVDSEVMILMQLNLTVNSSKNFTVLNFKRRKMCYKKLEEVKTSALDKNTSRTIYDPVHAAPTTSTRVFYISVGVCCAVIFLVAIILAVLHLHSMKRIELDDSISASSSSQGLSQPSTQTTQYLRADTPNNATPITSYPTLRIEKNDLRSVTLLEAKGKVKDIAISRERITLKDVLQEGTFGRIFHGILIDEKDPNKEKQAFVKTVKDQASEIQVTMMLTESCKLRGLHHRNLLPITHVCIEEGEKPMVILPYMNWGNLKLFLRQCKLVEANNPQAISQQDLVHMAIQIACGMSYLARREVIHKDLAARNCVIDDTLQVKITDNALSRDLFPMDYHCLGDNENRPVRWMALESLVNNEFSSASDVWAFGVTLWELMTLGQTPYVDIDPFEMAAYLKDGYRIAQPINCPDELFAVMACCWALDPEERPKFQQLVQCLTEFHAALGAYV
T2 sequence (P34925 46-227 limits assumed, form in doubt): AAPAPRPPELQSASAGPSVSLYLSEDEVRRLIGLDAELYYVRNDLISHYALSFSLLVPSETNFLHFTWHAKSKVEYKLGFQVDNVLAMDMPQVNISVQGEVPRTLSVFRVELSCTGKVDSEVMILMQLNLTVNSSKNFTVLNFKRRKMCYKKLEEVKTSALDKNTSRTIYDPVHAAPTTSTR

MFIR (MFI ratio to isotype control) [1]: 1.5
MFIR (MFI ratio to isotype control) [2]: 1.5
MFIR (MFI ratio to isotype control) [3]: 1.6
MFIR (MFI ratio to isotype control) [4]: 2.2
Kd [5]: 513 pM
MFIR (MFI ratio to isotype control) [6]: 2
MFIR (MFI ratio to isotype control) [7]: 2.7
MFIR (MFI ratio to isotype control) [8]: 2.1
MFIR (MFI ratio to isotype control) [9]: 2.3
MFIR (MFI ratio to isotype control) [10]: 1
MFIR (MFI ratio to isotype control) [11]: 1.1
MFIR (MFI ratio to isotype control) [12]: 1.3
MFIR (MFI ratio to isotype control) [13]: 1.3
MFIR (MFI ratio to isotype control) [14]: 1.2
MFIR (MFI ratio to isotype control) [15]: 1.1
MFIR (MFI ratio to isotype control) [16]: 1
MFIR (MFI ratio to isotype control) [17]: 1.1
MFIR (MFI ratio to isotype control) [18]: 1.1
MFIR (MFI ratio to isotype control) [19]: 1.2
B1: 2-D11 anti-human RYK mAb (antibody, V domains shown)
VH: QVQLKESGPGLVAPSQSLSITCSVSGFSLNDYGVNWVRQPPGKDLEWLGMIWGDGVTEYNSTLKSRLSISKDNSKSQVFLKMNNLQTEDTARYYCVRQGSGVWFAHWGQGTLVSVSS
VL: DVLVTQTPLSLPVSLGDQASISCRSSQTIVHSNGNTYLEWYLQKPGQSPKLLIYKVSNRFSGVPDRFSGSGSGTDFTLKISRVEAEDLGIYYCFQGSHVPYTFGGGTKLEIK
notes: Mouse hybridoma mAb, kappa light chain, detected with anti-mouse IgG; also called mAb 2-D11; 2-D11 anti-human RYK-Alexa647 conjugated mAb
